The test addresses HER2 on HER2-expressing SKOV3 and BT474 cells (human (endogenous in SKOV3 and BT474)) (UniProt P04626). The experiment in a line: radioligand binding; LigandTracer Yellow, living SKOV3 cells (10^6) on a segment of a dish; radiolabeled ADAPT at 0.333 and 1 nM; association and dissociation recorded, duplicates; InteractionMap software, two types of interaction.

Regarding “^99mTc-DEAVDANS-ADAPT6-GSSC (designed binder)”, the KD1 (first of two types of interaction) worked out at 174 pM.

Substance “^111In-DEAVDANS-ADAPT6-GSSC-DOTA (designed binder)” gave a KD1 (first of two types of interaction) of 32.3 pM and a KD2 (second of two types of interaction) of 1.31 nM.
